Drawing on the RNAGym collection of RNA variant scans (doi:10.7554/elife.90254), this text covers self-cleavage for 56 variants.

Sequences and labels used below:
B1: LINE1-mini (parent)
chain: GGCAGAGCUCAACACAGCGUGGCAAAGUGGCUGUGGCUAGACUGCC

The series covers variants of B1. In words: self-cleavage, relative activity (ratio to wild type); higher = more cleavage; in vitro, sequencing; the parent is a self-cleaving ribozyme.
Regarding GGCAGAGCUCAACACAGCGUGGCAAAGUGGCUGUGCCUAGACGGCC [G36C U43G], the self-cleavage was determined as 0.

Regarding GGCAGAGCUCAACACAGCGUGGCAAAGUGGCUGUGUCUCGACUGCC [G36U A39C], the self-cleavage came to 0.08. Turning to GGCAGAGCUCAACACAGCGUGGCAAAGUGGCUGUGUCUGGACUGCC [G36U A39G], the self-cleavage is 0.05. The same measure for GGCAGAGCUCAACACAGCGUGGCAAAGUGGCUGUGUCUUGACUGCC [G36U A39U]: 0.07; for GGCAGAGCUCAACACAGCGUGGCAAAGUGGCUGUUACUAGACUGCC [G35U G36A]: 0.16. For GGCAGAGCUCAACACAGCGUGGCAAAGUGGCUGUUCCUAGACUGCC [G35U G36C] the value was 0.11; for GGCAGAGCUCAACACAGCGUGGCAAAGUGGCUGUUUCUAGACUGCC [G35U G36U], 0.1; for GGCAGAGCUCAACACAGCGUGGCAAAGUGGCUGUUGCUAGACUUCC [G35U G44U], 0.11. For GGCAGAGCUCAACACAGCGUGGCAAAGUGGCUGUUGCUAGACUACC [G35U G44A] the value was 0.13; for GGCAGAGCUCAACACAGCGUGGCAAAGUGGCUGUUGCUAGACUCCC [G35U G44C], 0.07; for GGCAGAGCUCAACACAGCGUGGCAAAGUGGCUGUGUCUAGACUGCC [G36U], 0.08. Take GGCAGAGCUCAACACAGCGUGGCAAAGUGGCUGUGACUAGACUGCC [G36A]: the self-cleavage turned out to be 0.2. For GGCAGAGCUCAACACAGCGUGGCAAAGUGGCUGUGCCUAGACUGCC [G36C] the value was 0.1; for GGCAGAGCUCAACACAGCGUGGCAAAGUGGCUGUGACUAGGCUGCC [G36A A41G], 0.2; for GGCAGAGCUCAACACAGCGUGGCAAAGUGGCUGUGACUAGUCUGCC [G36A A41U], 0.44. Consider GGCAGAGCUCAACACAGCGUGGCAAAGUGGCUGUGACUAGCCUGCC [G36A A41C], for which the self-cleavage turned out to be 0.05. The same measure for GGCAGAGCUCAACACAGCGUGGCAAAGUGGCUGUGCCUAGACUACC [G36C G44A]: 0.04. Consider GGCAGAGCUCAACACAGCGUGGCAAAGUGGCUGUGCCUAGACUUCC [G36C G44U], for which the self-cleavage was determined as 0.08. For GGCAGAGCUCAACACAGCGUGGCAAAGUGGCUGUGCCUAGACUCCC [G36C G44C] the value was 0.11; for GGCAGAGCUCAACACAGCGUGGCAAAGUGGCUGUGACUAGACUUCC [G36A G44U], 0.15; for GGCAGAGCUCAACACAGCGUGGCAAAGUGGCUGUGACUAGACUCCC [G36A G44C], 0.15.

Take GGCAGAGCUCAACACAGCGUGGCAAAGUGGCUGUGACUAGACUACC [G36A G44A]: the self-cleavage came to 0.43.

Consider GGCAGAGCUCAACACAGCGUGGCAAAGUGGCUGUGACUUGACUGCC [G36A A39U], for which the self-cleavage came to 0.22. For GGCAGAGCUCAACACAGCGUGGCAAAGUGGCUGUGACUGGACUGCC [G36A A39G] the value was 0.39; for GGCAGAGCUCAACACAGCGUGGCAAAGUGGCUGUGACUCGACUGCC [G36A A39C], 0.27. In the case of GGCAGAGCUCAACACAGCGUGGCAAAGUGGCUGUGACUAAACUGCC [G36A G40A], the self-cleavage was 0.29. For GGCAGAGCUCAACACAGCGUGGCAAAGUGGCUGUGACUAUACUGCC [G36A G40U] the value was 0.47. The same measure for GGCAGAGCUCAACACAGCGUGGCAAAGUGGCUGUGACUACACUGCC [G36A G40C]: 0.27; for GGCAGAGCUCAACACAGCGUGGCAAAGUGGCUGUGACUAGACAGCC [G36A U43A]: 0.07; for GGCAGAGCUCAACACAGCGUGGCAAAGUGGCUGUGACUAGACGGCC [G36A U43G]: 0.01. As to GGCAGAGCUCAACACAGCGUGGCAAAGUGGCUGUGACUAGACCGCC [G36A U43C], the self-cleavage was determined as 0.31. For the variant GGCAGAGCUCAACACAGCGUGGCAAAGUGGCUGUGCCUAUACUGCC [G36C G40U], the self-cleavage was 0.18. For the variant GGCAGAGCUCAACACAGCGUGGCAAAGUGGCUGUGCCUAAACUGCC [G36C G40A], the self-cleavage worked out at 0.09. Consider GGCAGAGCUCAACACAGCGUGGCAAAGUGGCUGUGCCUACACUGCC [G36C G40C], for which the self-cleavage came out at 0.08. On to GGCAGAGCUCAACACAGCGUGGCAAAGUGGCUGUUGCUAGUCUGCC [G35U A41U], for which the self-cleavage was 0.14.

On to GGCAGAGCUCAACACAGCGUGGCAAAGUGGCUGUUGCUAGCCUGCC [G35U A41C], for which the self-cleavage amounted to 0.08. The same measure for GGCAGAGCUCAACACAGCGUGGCAAAGUGGCUGUUGCUAGGCUGCC [G35U A41G]: 0.08. The same measure for GGCAGAGCUCAACACAGCGUGGCAAAGUGGCUGUUGCUAGACUGCU [G35U C46U]: 0.1; for GGCAGAGCUCAACACAGCGUGGCAAAGUGGCUGUUGCUAGACUGCA [G35U C46A]: 0.11; for GGCAGAGCUCAACACAGCGUGGCAAAGUGGCUGUUGCUAGACUGCG [G35U C46G]: 0.09. The same measure for GGCAGAGCUCAACACAGCGUGGCAAAGUGGCUGUGACUAGACUGCG [G36A C46G]: 0.34; for GGCAGAGCUCAACACAGCGUGGCAAAGUGGCUGUGACUAGACUGCA [G36A C46A]: 0.14.

As to GGCAGAGCUCAACACAGCGUGGCAAAGUGGCUGUGACUAGACUGCU [G36A C46U], the self-cleavage came out at 0.26. For GGCAGAGCUCAACACAGCGUGGCAAAGUGGCUGUGUCUAGCCUGCC [G36U A41C] the value was 0.05. The same measure for GGCAGAGCUCAACACAGCGUGGCAAAGUGGCUGUGUCUAGUCUGCC [G36U A41U]: 0.1; for GGCAGAGCUCAACACAGCGUGGCAAAGUGGCUGUGUCUAGGCUGCC [G36U A41G]: 0.15; for GGCAGAGCUCAACACAGCGUGGCAAAGUGGCUGUUGCUAGAUUGCC [G35U C42U]: 0.11.

Regarding GGCAGAGCUCAACACAGCGUGGCAAAGUGGCUGUUGCUAGAGUGCC [G35U C42G], the self-cleavage stood at 0.05. The same measure for GGCAGAGCUCAACACAGCGUGGCAAAGUGGCUGUUGCUAGAAUGCC [G35U C42A]: 0.08. For GGCAGAGCUCAACACAGCGUGGCAAAGUGGCUGUGCCUAGUCUGCC [G36C A41U] the value was 0.14. The same measure for GGCAGAGCUCAACACAGCGUGGCAAAGUGGCUGUGCCUAGCCUGCC [G36C A41C]: 0.05; for GGCAGAGCUCAACACAGCGUGGCAAAGUGGCUGUGCCUAGGCUGCC [G36C A41G]: 0.11; for GGCAGAGCUCAACACAGCGUGGCAAAGUGGCUGUCGCUAGACGGCC [G35C U43G]: 0.09. Consider GGCAGAGCUCAACACAGCGUGGCAAAGUGGCUGUUGCGAGACUGCC [G35U U38G], for which the self-cleavage came to 0.03.

In the case of GGCAGAGCUCAACACAGCGUGGCAAAGUGGCUGUUGCCAGACUGCC [G35U U38C], the self-cleavage is 0.09. The same measure for GGCAGAGCUCAACACAGCGUGGCAAAGUGGCUGUUGCAAGACUGCC [G35U U38A]: 0.12.
